Reference: patent US20140323392A1

Experiments:
[1] = target: HIV-1 HXB2 envelope glycoprotein gp41 (N-trimer of the prehairpin intermediate) (HIV-1 strain HXB2) (UniProt P04578); experiment: cell-based or functional assay
[2] = target: HIV-1 JRFL envelope glycoprotein gp41 (N-trimer of the prehairpin intermediate) (HIV-1 strain JRFL); experiment: cell-based or functional assay

| Substance | IC50, HXB2 pseudovirion entry [1] | IC50, JRFL pseudovirion entry [2] |
| --- | --- | --- |
| C34 (from UniProt P04578 628-661) (peptide) | 1.4 nM | 13.4 nM |
| C34-PEG2-Chol (from UniProt P04578 628-661) (peptide) | 0.044 nM | 0.05 nM |
| C34-PEG11-Chol (from UniProt P04578 628-661) (peptide) | 0.021 nM | 0.024 nM |
| C34-PEG80-Chol (from UniProt P04578 628-661) (peptide) | 0.022 nM | 0.1 nM |
